From patent US20260242478A1 (published 2026)
Where no end group is shown, it is not given here.

B1: Phage-3498 (peptide)
peptide: TVHYCTPSWMCTGF
modifications: cysteine pairing not given here; also: fused to pIII of bacteriophage, pIII and linker not given here
notes: Peptide-180 library clone, tested as clonal phage supernatant with the peptide fused to pIII of the bacteriophage
B2: Phage-3481 (peptide)
peptide: DTIACRPEWMCTGF
notes: tested as crude clonal phage supernatant
B3: Phage-3492 (peptide)
peptide: DILRCVPEWMCTGF
modifications: cysteine pairing not given here; also: fused to pIII of bacteriophage, pIII and linker not given here
notes: as for B1
B4: Phage-3494 (peptide)
peptide: DYMMCSPDWMCKGF
modifications: cysteine pairing not given here; also: fused to pIII of bacteriophage, pIII and linker not given here
notes: as for B1
B5: Phage-3493 (peptide)
peptide: YPTWCVPTWMCTGM
modifications: cysteine pairing not given here; also: fused to pIII of bacteriophage, pIII and linker not given here
notes: as for B1
B6: Phage-3501 (peptide)
peptide: PLRYCEPAWMCFGF
modifications: cysteine pairing not given here; also: fused to pIII of bacteriophage, pIII and linker not given here
notes: as for B1
B7: Phage-3491 (peptide)
peptide: LEMVCKPEWMCLGL
modifications: cysteine pairing not given here; also: fused to pIII of bacteriophage, pIII and linker not given here
notes: as for B1
B8: Phage-3502 (peptide)
peptide: WLYSCIPQWMCTGF
modifications: cysteine pairing not given here; also: fused to pIII of bacteriophage, pIII and linker not given here
notes: as for B1
B9: Phage-3489 (peptide)
peptide: LDRMCVPLWMCEGF
notes: as for B2
B10: Phage-3499 (peptide)
peptide: THPLCVPTWMCSGF
modifications: cysteine pairing not given here; also: fused to pIII of bacteriophage, pIII and linker not given here
notes: as for B1
B11: Phage-3495 (peptide)
peptide: SMAWCVPNWMCTGF
modifications: cysteine pairing not given here; also: fused to pIII of bacteriophage, pIII and linker not given here
notes: as for B1
B12: Phage-3496 (peptide)
peptide: QDMVCRPAWMCTGF
modifications: cysteine pairing not given here; also: fused to pIII of bacteriophage, pIII and linker not given here
notes: as for B1
B13: Phage-3487 (peptide)
peptide: PVAVCKPAWMCEGF
notes: as for B2
B14: Phage-3490 (peptide)
peptide: VNMICKPAWMCKGF
modifications: cysteine pairing not given here; also: fused to pIII of bacteriophage, pIII and linker not given here
notes: as for B1
B15: Phage-3488 (peptide)
peptide: ITQMCKPAWMCVGL
notes: as for B2
B16: Phage-3484 (peptide)
peptide: AERMCVPSWMCQGL
notes: as for B2
B17: Phage-3483 (peptide)
peptide: ITPACVPEWMCLGL
notes: as for B2
B18: Phage-3486 (peptide)
peptide: YSQMCKPAWMCNGF
notes: as for B2
B19: Phage-3503 (peptide)
peptide: EAPACVPVWMCNGF
modifications: cysteine pairing not given here; also: fused to pIII of bacteriophage, pIII and linker not given here
notes: as for B1
B20: Phage-3497 (peptide)
peptide: VDRICKPDWMCAGF
modifications: cysteine pairing not given here; also: fused to pIII of bacteriophage, pIII and linker not given here
notes: as for B1
B21: Phage-3482 (peptide)
peptide: YFKHCVPQWMCEGF
notes: as for B2
B22: Phage-3500 (peptide)
peptide: YDHFCVPRWMCEGL
modifications: cysteine pairing not given here; also: fused to pIII of bacteriophage, pIII and linker not given here
notes: as for B1
B23: Phage-3485 (peptide)
peptide: EAIRCVPVWMCQGF
notes: as for B2

Legend:
Anti-PSMA Fab [1] = target: T1, Anti-PSMA Fab; experiment: clonal phage ELISA on captured PSMA Fab pre-incubated with PSMA antigen as competitor, anti-M13 HRP detection;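 further: crude clonal phage supernatants tested by ELISA, wells first treated with blocking buffer plus PSMA antigen, bound phage read out via HRP-linked anti-M13 antibody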
T1 construct: Biotinylated and captured on neutravidin coated plates in the phage ELISA; also called 006 PSMA Fab
Method: (§1) Clonal phage were harvested as crude supernatants and screened via standard ELISAs. […] Prior to the addition of clonal phage. wells were incubated with blocking buffer and PSMA antigen or blocking buffer alone. Without washing or aspirating, clonal phage supernatants were then added to the wells and incubated for a short time. Wells were then washed followed by detection of bound phage using a horse radish conjugated anti-M13 antibody.

Anti-PSMA Fab [2] = target: T1, Anti-PSMA Fab; experiment: clonal phage ELISA on biotinylated PSMA Fab captured on neutravidin plate, anti-M13 HRP detection, blocking buffer alone
Method: as §1

PSMA Fab [3] = target: T2, PSMA Fab (biotinylated (site not stated)); experiment: clonal phage ELISA, biotinylated PSMA Fab on neutravidin plate, anti-M13 HRP detection;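 further: crude clonal phage supernatants added to wells pretreated with blocking buffer either with or without PSMA antigen, bound phage read after washing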
T2 construct: Biotinylated PSMA Fab captured on neutravidin coated plates in the phage ELISA; also called Anti-PSMA Fab; 006 PSMA Fab

PSMA Fab [4] = target: T2, PSMA Fab; experiment: clonal phage ELISA on PSMA Fab pre-incubated with PSMA antigen as competitor
Method: as §1

PSMA Fab [5] = target: T3, PSMA Fab (biotinylated (site not stated)); experiment: clonal phage ELISA on captured PSMA Fab; competitor: PSMA antigen at saturating concentration
T3 construct: also called Anti-PSMA Fab; 006 PSMA Fab

PSMA Fab [6] = target: T3, PSMA Fab; experiment: clonal phage ELISA on biotinylated PSMA Fab captured on neutravidin plate, anti-M13 HRP detection; no PSMA antigen
Method: as §1

| Binder | Phage binding ELISA signal, Anti-PSMA Fab with PSMA antigen (Anti-PSMA Fab [1]) | Phage binding ELISA signal, Anti-PSMA Fab (Anti-PSMA Fab [2]) | phage binding ELISA signal (PSMA Fab [5]) | phage binding ELISA signal (PSMA Fab [6]) | also measured |
| --- | --- | --- | --- | --- | --- |
| B1 | 0.0866 | 1.7 | – | – | – |
| B2 | – | – | – | – | Phage binding ELISA signal, Anti-PSMA Fab (PSMA Fab [3]): 1.72; Phage binding ELISA signal, Anti-PSMA Fab with PSMA antigen (PSMA Fab [4]): 0.0607 |
| B3 | 0.0911 | 1.71 | – | – | – |
| VVKHCVPTWMCAGF [Phage-3514] | – | – | 0.0813 | 1.69 | – |
| B4 | 0.0722 | 1.7 | – | – | – |
| B5 | 0.0716 | 1.71 | – | – | – |
| B6 | 0.0601 | 1.7 | – | – | – |
| NIIHCVPPWMCDGF [Phage-3504] | – | – | 0.0795 | 1.7 | – |
| B7 | 0.0996 | 1.71 | – | – | – |
| B8 | 0.127 | 1.7 | – | – | – |
| B9 | – | – | – | – | Phage binding ELISA signal, Anti-PSMA Fab (PSMA Fab [3]): 1.71; Phage binding ELISA signal, Anti-PSMA Fab with PSMA antigen (PSMA Fab [4]): 0.0991 |
| B10 | 0.0862 | 1.7 | – | – | – |
| TEQICKPAWMCTGL [Phage-3512] | – | – | 0.0536 | 1.69 | – |
| B11 | 0.0897 | 1.7 | – | – | – |
| B12 | 0.0848 | 1.7 | – | – | – |
| VDHRCVPSWMCYGL [Phage-3508] | – | – | 0.0745 | 1.69 | – |
| B13 | – | – | – | – | Phage binding ELISA signal, Anti-PSMA Fab (PSMA Fab [3]): 1.72; Phage binding ELISA signal, Anti-PSMA Fab with PSMA antigen (PSMA Fab [4]): 0.0982 |
| SVTTCIPPWMCTGF [Phage-3513] | – | – | 0.0979 | 1.69 | – |
| ADIYCKPVWMCTGF [Phage-3510] | – | – | 0.0909 | 1.69 | – |

| Binder | Phage binding ELISA signal, Anti-PSMA Fab with PSMA antigen (Anti-PSMA Fab [1]) | Phage binding ELISA signal, Anti-PSMA Fab (Anti-PSMA Fab [2]) | phage binding ELISA signal (PSMA Fab [5]) | phage binding ELISA signal (PSMA Fab [6]) | also measured |
| --- | --- | --- | --- | --- | --- |
| EYMRCEPSWMCYGF [Phage-3509] | – | – | 0.0584 | 1.69 | – |
| B14 | 0.0872 | 1.71 | – | – | – |
| B15 | – | – | – | – | Phage binding ELISA signal, Anti-PSMA Fab (PSMA Fab [3]): 1.72; Phage binding ELISA signal, Anti-PSMA Fab with PSMA antigen (PSMA Fab [4]): 0.123 |
| SVAYCVPTWMCDGL [Phage-3516] | – | – | 0.0618 | 1.69 | – |
| B16 | – | – | – | – | Phage binding ELISA signal, Anti-PSMA Fab (PSMA Fab [3]): 1.72; Phage binding ELISA signal, Anti-PSMA Fab with PSMA antigen (PSMA Fab [4]): 0.0943 |
| AEPVCVPDWMCFGF [Phage-3507] | – | – | 0.103 | 1.69 | – |
| B17 | – | – | – | – | Phage binding ELISA signal, Anti-PSMA Fab (PSMA Fab [3]): 1.72; Phage binding ELISA signal, Anti-PSMA Fab with PSMA antigen (PSMA Fab [4]): 0.0774 |
| B18 | – | – | – | – | Phage binding ELISA signal, Anti-PSMA Fab (PSMA Fab [3]): 1.72; Phage binding ELISA signal, Anti-PSMA Fab with PSMA antigen (PSMA Fab [4]): 0.101 |
| MVPRCEPEWMCVGF [Phage-3517] | – | – | 0.0705 | 1.69 | – |
| LTQMCKPLWMCAGF [Phage-3506] | – | – | 0.0786 | 1.69 | – |
| VGHMCKPVWMCAGL [Phage-3511] | – | – | 0.101 | 1.69 | – |
| B19 | 0.0778 | 1.7 | – | – | – |
| IEIRCKPEWMCTSF [Phage-3505] | – | – | 0.0708 | 1.7 | – |
| B20 | 0.091 | 1.7 | – | – | – |
| B21 | – | – | – | – | Phage binding ELISA signal, Anti-PSMA Fab (PSMA Fab [3]): 1.72; Phage binding ELISA signal, Anti-PSMA Fab with PSMA antigen (PSMA Fab [4]): 0.146 |
| B22 | 0.0592 | 1.7 | – | – | – |
| PELACIPEWMCIGF [Phage-3515] | – | – | 0.0803 | 1.69 | – |
| B23 | – | – | – | – | Phage binding ELISA signal, Anti-PSMA Fab (PSMA Fab [3]): 1.72; Phage binding ELISA signal, Anti-PSMA Fab with PSMA antigen (PSMA Fab [4]): 0.0989 |
